Laboratory results as given in patent US9809627B2, “Cyclized transthyretin peptide and methods of use therefor” (Wisconsin Alumni Research Foundation, priority 2014, dated 2017).
“Also recorded” adds a separate entry of the source. Where no end group is shown, it is not given here. [ ]: non-standard residue; d: D form.

Assays:
Aβ (1-40) [1] = target: T1, Aβ (1-40) (Homo sapiens, UniProt P05067); experiment: Photoinduced cross-linking (PICUP) of Aβ and peptides; type: binding; conditions: for interaction with Aβ (shift in cross-linked Aβ size distribution): pre-aggregated Aβ, 10:1 molar excess of Aβ, Western blot 4G8
T1 construct: Aβ (1-40) was purchased from Anaspec, Inc. (Fremont, Calif.) as lyophilized powder; purchased Anaspec, Inc. (Fremont, Calif.)
Method: (§1) Aβ (1-40) was purchased from Anaspec, Inc. (Fremont, Calif.) as lyophilized powder. For dynamic light scattering, ThT fluorescence assay, TEM, NTA measurement and filtration/sedimentation assay, Aβ was dissolved in 50% ACN, re-lyophilized, and reconstituted in 8M urea at 12 mg/mL. Aβ stock was then aliquoted, snap-frozen in ethanol with dry ice, and stored at −80° C. For PICUP and proteolytic fragmentation analysis, lyophilized Aβ was dissolved in prechilled hexafluoroisopropanol (HFIP, Acros Organics, Geel, Belgium), aliquoted, dried and stored at −20° C. as previously described (Cho et al., 2014). Aβ sample was prepared right before use by dissolving dried peptides in 50 mM NaOH and diluting into phosphate-buffered saline (PBSA) (10 mM Na2HPO4/NaH2PO4, 150 mM NaCL and 0.02% NaN3 (pH 7.4)) to 30 μM as previously described (Cho et al., 2014).
Aβ prepared with HFIP/NaOH treatment at 30 μM as described was mixed with peptides to a final concentration of 24 μM Aβ and 2.4 μM peptides. Aβ stock was used immediately (freshly prepared) or after incubation for 24 hr at 37° C. (1 day pre-aggregated). Samples of Aβ with and without peptides were incubated for 1 hr at 37° C. and cross-linked by photo-induced cross-linking method as previously described (Cho et al., 2014). Cross-linked samples were then separated on a 10-20% Tris-Tricine gradient gel (Iinvotrogen, Carlsbad, Calif.), transferred onto a 0.2 μm poly(vinylidene difluoride) (PVDF) membrane and detected by monoclonal mouse anti-Aβ antibody 4G8 (Covance, Princeton, N.J.) as previously described (Cho et al., 2014).

Aβ (1-40) [2] = target: T1, Aβ (1-40); experiment: Proteolytic fragmentation assay of Aβ with peptides (Proteinase K); type: binding; conditions: 3:1 molar excess of peptides, detection by 4G8
Method: as §1
The proteolytic fragmentation assay of Aβ with peptides was performed as previously described in detail (Cho et al., 2014). Briefly, Aβ alone (20 μM) or with peptide (60 μM) was incubated for 24 hr at 37° C. Proteinase K (Promega, Madison, Wis.) was added to the samples at a final concentration of 0.5 μg/mL and samples were dotted onto a 0.45 μm nitrocellulose membrane (Pierce) after incubation for 0, 5, 10, 20, 30, 40, 50, 60, 90 and 120 min. Membranes were then reacted with monoclonal antibodies against Aβ (6E10, Covance, against Aβ (3-8) and 4G8 against Aβ (18-22)) and visualized.

Aβ (1-40) [3] = target: T1, Aβ (1-40); experiment: Dynamic light scattering of Aβ aggregate growth; type: biochemical; conditions: 140 μM Aβ
Method: as §1
Aβ stock in 8M urea prepared as stated above was thawed and sonicated for 2 min before being diluted into PBSA. Aβ alone (140 μM) or mixed with peptides (14 μM) was filtered through […] filter directly into a light scattering cuvette and placed into a bath of the index-matching solvent decahydronaphthalene with temperature controlled to 37° C. Light scattering data were collected using a Brookhaven BI-200SM system (Brookhaven Instruments Corp., Holtsville, N.Y.) and an Innova 90C-5 argon laser (Coherent, Santa Clara, Calif.) operating at 488 nm and 150 mW. The average scattering intensity at 90° was measured over 10 hr and data were normalized to the total mass concentration. The z-averaged hydrodynamic diameter was determined from the autocorrelation function using the method of cummulants.

Aβ (1-40) [4] = target: T1, Aβ (1-40); experiment: Filtration/sedimentation assay of Aβ aggregation; type: biochemical
Method: as §1
Aβ alone (30 μM) or with CG3 (3 μM) was prepared in PBSA and incubated for 24 hr at 37° C. For filtration, 175 μL of sample was filtered through 0.45 μm filter. For sedimentation, 100 μL of sample was transferred onto a separate tube and centrifuged for 30 min at 19,500 ref. The supernatant (80%) was removed. Concentrations of untreated, filtered, and centrifuged samples were measured by BCA assay (Pierce).

Aβ (1-40) [5] = target: T1, Aβ (1-40); experiment: Thioflavin T (ThT) fluorescence assay of Aβ aggregation; type: biochemical; conditions: 28 μM Aβ; for ThT fluorescence intensity of Aβ with peptide: 2.8 μM peptide; for inhibition of ThT fluorescence increase: up to 48 h, 2.8 μM peptide or mTTR
Method: as §1
ThT stock solutions were prepared in PBSA and filtered through 0.22 μm filter. The concentration of ThT was measured using an extinction coefficient of 26,620 M^−1 cm^−1 at 416 nm and the stock solution was diluted to 10 μM in PBSA prior to the measurement. Aβ alone (28 μM) and with peptides (2.8 μM) or mTTR (2.8 μM) were prepared in PBSA and incubated for 48 hr at 37° C. After 1, 5, 24 and 48 hr of incubation, 10 μL of each sample was mixed with 130 μL of 10 μM ThT and analyzed. ThT fluorescence emission was measured using a QuantaMaster spectrofluometer (PTI, Birmingham, N.J.), with excitation at 440 nm and emission spectra recorded from 460 to 500 nm. Three serial spectra were averaged for each sample and the background signal of ThT in PBSA was subtracted from the averaged data. Fluorescence intensity at a wavelength of 480 nm was compared.

Aβ (1-40) [6] = target: T1, Aβ (1-40); experiment: Transmission electron microscopy of Aβ aggregates; type: biochemical; conditions: 48 h at 37° C., 28 μM Aβ, 2.8 μM peptide
Method: as §1
Aβ alone (28 μM) or with peptides (G16 or CG3 at 2.8 μM) were prepared in PBSA and incubated for 48 hr at 37° C. A drop of sample was placed on a pioloform-coated grid and stained with methylamine tungstate stain. Images were taken with a Philips CM120 scanning transmission electron microscope (FEI Corp., Eindhoven, The Netherlands).

[7] = test system: primary cortical neuronal cells; experiment: In vitro cellular toxicity of Aβ (1-42), MTS assay; type: cell-based, mice; conditions: for protection against Aβ toxicity: 10 μM Aβ
Method: Aβ toxicity was assessed as described in detail previously (Yang et al., 2013; Cho et al., 2014). Briefly, the primary cortical neuronal cells were cultured from embryonic 15.5 day mice and were maintained in neurobasal media till they are matured. Aβ (1-42) (American Peptide, Sunnyvale, Calif.) at 1 mg/mL in PBS was diluted to 10 μM without or with peptides as previously described (Cho et al., 2014). At 6 days in vitro (DIV), the cells were treated with either Aβ alone or Aβ incubated with different doses of mTTR and peptides. Appropriate vehicle and controls were run along with the treatments. At 8 DIV, the neurons were incubated with MTS reagent (Promega) as per manufacturer protocol for 2-3 hrs and absorbance was measured at 490 nm.

[8] = Peptide self-aggregation by light scattering; type: physicochemical; conditions: 80 μM, 37° C., after 1 hr of incubation
Method: To further probe for self-aggregation, G16, LG3, and CG3 were incubated at 80 μM at 37° C. and analyzed by light scattering.

Aβ toxicity = conditions: cited from earlier work
[9] = Peptide self-association by PICUP cross-linking and gel electrophoresis; type: physicochemical; conditions: PICUP cross-linking, gel electrophoresis
Method: Peptides were also cross-linked by PICUP and analyzed for self-association. Twenty microliters of peptides at 36 μM in PBSA was incubated for 1 hr at 37° C. and cross-linked. Cross-linked samples were then heated at 95° C. for 5 min and separated on a 10-20% Tris-Tricine gradient gel. Peptides were visualized by silver staining (SilverStain Kit, Pierce, Rockford, Ill.).

Substance: PRRYTIAALLSPYSWS [G16, 16-mer linear peptide, TTR residues 102-117, Y116W, reference compound]
- interaction with freshly prepared versus pre-aggregated Aβ (Aβ (1-40) [1]; freshly prepared or 1 day pre-aggregated Aβ): showed no such selectivity
- interaction with Aβ (shift in cross-linked Aβ size distribution) (Aβ (1-40) [1]): interact with Aβ
- effect on Aβ degradation by protease (Aβ (1-40) [2]): Aβ degradation was delayed; also recorded: most effective in inhibiting degradation
- effect on Aβ aggregation (hydrodynamic diameter, total scattered intensity) (Aβ (1-40) [3]; 14 μM peptide): increased the size of aggregates of Aβ
- intensity of scattered light of Aβ-peptide mixture (Aβ (1-40) [3]; 14 μM peptide): enhanced the intensity of scattered light similarly
- mean hydrodynamic size of Aβ-peptide mixture (Aβ (1-40) [3]; after 5 hr, 10:1 molar excess of Aβ, 37° C.): about 120 nm
- effect on fraction of Aβ aggregates removable by filtration or sedimentation (Aβ (1-40) [4]): reduce the fraction of Aβ aggregates that can be removed by filtration or sedimentation
- ThT fluorescence intensity of Aβ with peptide (Aβ (1-40) [5]; after 5 hr): remained low
- ThT fluorescence intensity of Aβ with peptide (Aβ (1-40) [5]; after 24 hr): ThT-positive species were detected
- morphology of Aβ aggregates by TEM (Aβ (1-40) [6]): still a large number of fibrils
- protection against Aβ toxicity ([7]; highest dose tested): small but significant protection
- light scattering of peptide alone [8]: scattered light above background
- fold less effective than full-length TTR at protecting cells from Aβ toxicity (Aβ toxicity): about 25 fold

Substance: PRRYTIAALLSPYSWSDYKDDDDK [GF, linear peptide G16 with a C-terminal FLAG tag]
- interaction with Aβ (shift in cross-linked Aβ size distribution) (Aβ (1-40) [1]): interact with Aβ
- effect on Aβ degradation by protease (Aβ (1-40) [2]): Aβ degradation was delayed
- effect on Aβ aggregation (hydrodynamic diameter, total scattered intensity) (Aβ (1-40) [3]; 14 μM peptide): little to no effect on Aβ aggregation
- inhibition of ThT fluorescence increase (Aβ (1-40) [5]): unable to inhibit the ThT fluorescence increase
- protection against Aβ toxicity ([7]; 10 μM peptide): no protective effect
- protection against Aβ toxicity ([7]; highest dose (40 μM)): modest protection
- self-association by PICUP [9]: some lower-molecular-weight multimers but none of the larger multimers

Substance: SKVVTPPRYTIAKLLSPYSYSQ (not fully specified; also: cyclic (type not given here)) [SEQ ID NO: 17]
- self-association by PICUP [9]: significantly less self-association than SEQ ID NO: 1

Substance: SKVVT^DPPRYTIAALLSPYSYSQ [LG3] (SKVVT[dP]PRYTIAALLSPYSYSQ) [non-cyclized 22-mer, TTR residues 104-123 grafted onto DPro-Pro template]
- interaction with Aβ (shift in cross-linked Aβ size distribution) (Aβ (1-40) [1]): interact with Aβ; also recorded: weaker compared to CG3
- effect on Aβ degradation by protease (Aβ (1-40) [2]): Aβ degradation was delayed
- effect on Aβ aggregation (hydrodynamic diameter, total scattered intensity) (Aβ (1-40) [3]; 14 μM peptide): little to no effect on Aβ aggregation
- inhibition of ThT fluorescence increase (Aβ (1-40) [5]): unable to inhibit the ThT fluorescence increase
- protection against Aβ toxicity ([7]; 10 μM peptide): no protective effect
- light scattering of peptide alone [8]: did not scatter light above background

Substance: SKV^DPPTIAALLSPYSYSQ [CG2] (cyclo(SKV[dP]PTIAALLSPYSYSQ)) [cyclic 18-mer of TTR residues 106-121 grafted onto DPro-Pro template]
- interaction with Aβ (shift in cross-linked Aβ size distribution) (Aβ (1-40) [1]): do not show signs of interaction with Aβ
- effect on Aβ degradation by protease (Aβ (1-40) [2]): did not have any effect on the time course of degradation
- effect on Aβ aggregation (hydrodynamic diameter, total scattered intensity) (Aβ (1-40) [3]; 14 μM peptide): did not affect Aβ aggregation; also recorded: nor did they affect Aβ aggregation
- inhibition of Aβ toxicity (summary) [7]: nor did they affect Aβ aggregation or inhibit Aβ toxicity
- protection against Aβ toxicity ([7]; 10 μM peptide): no protective effect

Substance: SKV^DPPTIAALLSPYSYSQ [LG2] (SKV[dP]PTIAALLSPYSYSQ) [non-cyclized 18-mer, TTR residues 106-121 grafted onto DPro-Pro template]
- interaction with Aβ (shift in cross-linked Aβ size distribution) (Aβ (1-40) [1]): do not show signs of interaction with Aβ
- effect on Aβ aggregation (hydrodynamic diameter, total scattered intensity) (Aβ (1-40) [3]; 14 μM peptide): nor did they affect Aβ aggregation
- inhibition of Aβ toxicity (summary) [7]: nor did they affect Aβ aggregation or inhibit Aβ toxicity
- self-association by PICUP [9]: oligomer distribution was shifted towards lower molecular weight
